Consider 23 molecules from paper PMC9352680, “A comprehensive thermodynamic model for RNA binding by the Saccharomyces cerevisiae Pumilio protein PUF4”.

First the molecules themselves.
T1: PUF4 RNA-binding domain (Saccharomyces cerevisiae, UniProt P25339 537-888)
T1 sequence: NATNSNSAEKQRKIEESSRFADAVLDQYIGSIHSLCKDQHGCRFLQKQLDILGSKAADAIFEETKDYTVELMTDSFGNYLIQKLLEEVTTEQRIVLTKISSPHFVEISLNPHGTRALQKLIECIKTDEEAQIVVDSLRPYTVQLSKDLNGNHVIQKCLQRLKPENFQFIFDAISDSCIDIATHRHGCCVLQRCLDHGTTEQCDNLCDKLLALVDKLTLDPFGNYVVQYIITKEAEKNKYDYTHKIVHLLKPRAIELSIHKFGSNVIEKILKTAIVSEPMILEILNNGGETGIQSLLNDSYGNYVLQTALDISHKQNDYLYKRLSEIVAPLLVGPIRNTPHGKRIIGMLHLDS

B1: Ic_S2_P5E.1_K5.1_C5.1_H5.1_A5.1_[A7T]_F5.1_[T8C]_[T9A]_T5.1 (ssRNA)
RNA: UUUGAUUAAUAUGAUAUCGUUCUUUCUUGUAUUUCAAUUCUUUCUCGAUAUCAUAUUAAUCUUU
B2: Ic_S2_P5E.1_K5.1_C5.1_H5.1_A5.1_[T5C]_[T6A]_[A7C]_F5.1_[T8C]_[T9A]_[A10T]_T5.1 (ssRNA)
RNA: B1 RNA with U32C, U33A, U34C, A37U
B3: Ic_S2_P5E.1_K5.1_C5.1_H5.1_A5.1_[T6A]_[A7C]_F5.1_[T9A]_[A10C]_T5.1 (ssRNA)
RNA: B1 RNA with U33A, U34C, C35U, A37C
B4: Ic_S2_P5E.1_K5.1_C5.1_H5.1_A5.1_[T5C]_F5.1_[T9A]_[A10T]_T5.1 (ssRNA)
RNA: B1 RNA with U32C, U34A, C35U, A37U
B5: Ic_S2_P5E.1_K5.1_C5.1_H5.1_A5.1_[T6A]_[A7C]_F5.1_[T8G]_[T9G]_[A10T]_T5.1 (ssRNA)
RNA: B1 RNA with U33A, U34C, C35G, A36G, A37U
B6: Ic_S2_P5E.1_K5.1_C5.1_H5.1_A5.1_[A7G]_F5.1_[T8C]_[T9C]_T5.1 (ssRNA)
RNA: B1 RNA with U34G, A36C
B7: Ic_S2_P5E.1_K5.1_C5.1_H5.1_A5.1_[T5A]_[T6A]_[A7C]_F5.1_[T9A]_T5.1 (ssRNA)
RNA: B1 RNA with U32A, U33A, U34C, C35U
B8: Ic_S2_P5E.1_K5.1_C5.1_H5.1_A5.1_[T5A]_[A7T]_F5.1_[T8G]_[T9C]_[A10C]_T5.1 (ssRNA)
RNA: B1 RNA with U32A, C35G, A36C, A37C
B9: Ic_S2_P5E.1_K5.1_C5.1_H5.1_A5.1_[T5C]_[T6A]_[A7C]_F5.1_[T8A]_[T9A]_T5.1 (ssRNA)
RNA: B1 RNA with U32C, U33A, U34C, C35A
B10: Ic_S2_P5E.1_K5.1_C5.1_H5.1_A5.1_[T5C]_[T6A]_F5.1_[A10C]_T5.1 (ssRNA)
RNA: B1 RNA with U32C, U33A, U34A, C35U, A36U, A37C
B11: Ic_S2_P5E.1_K5.1_C5.1_H5.1_A5.1_[T5C]_[T6C]_F5.1_[T9A]_[A10C]_T5.1 (ssRNA)
RNA: B1 RNA with U32C, U33C, U34A, C35U, A37C
B12: Ic_S2_P5E.1_K5.1_C5.1_H5.1_A5.1_[T5A]_[T6A]_[A7T]_F5.1_[T8C]_[A10T]_T5.1 (ssRNA)
RNA: B1 RNA with U32A, U33A, A36U, A37U
B13: Ic_S2_P5E.1_K5.1_C5.1_H5.1_A5.1_[T5A]_[T6C]_[A7C]_F5.1_[T8C]_[T9A]_[A10T]_T5.1 (ssRNA)
RNA: B1 RNA with U32A, U33C, U34C, A37U
B14: Ic_S2_P5E.1_K5.1_C5.1_H5.1_A5.1_[T5C]_[T6A]_[A7C]_F5.1_[T8C]_[T9C]_[A10C]_T5.1 (ssRNA)
RNA: B1 RNA with U32C, U33A, U34C, A36C, A37C
B15: Ic_S2_P5E.1_K5.1_C5.1_H5.1_A5.1_[T5A]_F5.1_[T9A]_[A10T]_T5.1 (ssRNA)
RNA: B1 RNA with U32A, U34A, C35U, A37U
B16: Ic_S2_P5E.1_K5.1_C5.1_H5.1_A5.1_[T5C]_[T6G]_[A7T]_F5.1_[T8G]_[T9G]_[A10T]_T5.1 (ssRNA)
RNA: B1 RNA with U32C, U33G, C35G, A36G, A37U
B17: Ic_S2_P5E.1_K5.1_C5.1_H5.1_A5.1_[T5C]_[A7T]_F5.1_[T8C]_[T9A]_[A10T]_T5.1 (ssRNA)
RNA: B1 RNA with U32C, A37U
B18: Ic_S2_P5E.1_K5.1_C5.1_H5.1_A5.1_[A7T]_F5.1_[T8C]_[T9G]_[A10T]_T5.1 (ssRNA)
RNA: B1 RNA with A36G, A37U
B19: Ic_S2_P5E.1_K5.1_C5.1_H5.1_A5.1_[T5C]_[T6A]_[A7C]_F5.1_[T9C]_T5.1 (ssRNA)
RNA: B1 RNA with U32C, U33A, U34C, C35U, A36C
B20: Ic_S2_P5E.1_K5.1_C5.1_H5.1_A5.1_[T6C]_[A7T]_F5.1_[T8A]_[A10C]_T5.1 (ssRNA)
RNA: B1 RNA with U33C, C35A, A36U, A37C
B21: Ic_S2_P5E.1_K5.1_C5.1_H5.1_A5.1_[T6A]_[A7C]_F5.1_[T8C]_[T9A]_[A10C]_T5.1 (ssRNA)
RNA: B1 RNA with U33A, U34C, A37C

Residue numbers refer to the chain shown, from its start. Names may count otherwise.

The target of the series is T1, PUF4 RNA-binding domain. Nature of the series: Mg; RNA-MaP; 20 mM Na-HEPES pH 7.4, 30 mM KOAc, 0.75 mM MgCl2, 0.1% Tween-20, 5% glycerol, 0.1 mg/mL BSA, 2 mM DTT; 25 C; 0.0125-409.6 nM protein. The conditions noted are these: tags: N-His6-TEV cleaved; C-SNAP kept, Cy3B-labelled; label: tethered on chip by stalled RNA polymerase.
For orientation: Kd means a measure of binding affinity in units of concentration. Higher therefore signals a looser complex. In the case of UCUCUUUGUUUAUCAUCUCUU (ssRNA) [Ib_S1_P4E.1_K4.1_C4.1_H4.1_[A4T]_A4.1_F4.1_[T8C]_T4.1], binding was characterised by a dissociation constant (Kd) of 917 nM.

Molecule B1 registered a Kd of 389 nM.

The molecule B2 yielded a Kd of 14.9 nM.

B3 registered a dissociation constant (Kd) of 1.15 nM.

As to B4, the affinity, expressed as Kd, was 0.408 nM.

Molecule B5 yielded a Kd of 571 nM.

The molecule B6 gave a Kd of 497 nM.

Take B7: the dissociation constant (Kd) is 1.9 nM.

In the case of B8, binding was characterised by a dissociation constant (Kd) of 622 nM.

B9 yielded a Kd of 10.8 nM.

With B10, the affinity, expressed as Kd, was 6.33 nM.

In the case of B11, the affinity, expressed as Kd, was 1.13 nM.

Consider B12, for which the Kd came out at 76.2 nM.

Consider B13, for which the Kd is 591 nM.

The molecule B14 came in with a Kd of 67.3 nM.

Consider B15, for which binding was characterised by a dissociation constant (Kd) of 1.32 nM.

B16 yielded a Kd of 211 nM.

Regarding B17, the Kd was 80.5 nM.

As to B18, the affinity, expressed as Kd, was 86.5 nM.

Take B19: the Kd amounted to 7.78 nM.

For B20, the Kd worked out at 12.7 nM.

B21 showed a Kd of 31.2 nM.

In turn, UCUCUUUGUGUAUAAUCUCUU (ssRNA) [Ib_S1_P4E.1_K4.1_C4.1_H4.1_[A4G]_A4.1_F4.1_[T8A]_T4.1] registered a Kd of 11.4 nM.
